Results taken from the supplement of paper PMC9732359.
± gives the uncertainty stated by the source.

Assay: protein stability index of a GFP-peptide fusion (yeast GPS) (PSI 1-4); higher = more stable; sorted into four equal gates, so the index is relative within each strain
Procedure, shortened: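 Tiled yeast protein peptides of 17 residues were each joined downstream of GFP, on plasmids that also express Cherry. The pooled library was maintained in yeast, and mid-log cultures in leucine-free medium were sorted into four equal gates on the GFP/Cherry ratio. Plasmids from every gate were amplified by PCR and sequenced on Illumina, with barcodes linking reads to strains. The protein stability index of a peptide is its gate-number-weighted read frequency summed over the gates.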

PITNKERSLAVKYINFG [RPC31]
protein stability index (doa10∆): 3.02 ± 0.14
protein stability index (pdr5∆): 3.11 ± 0.16
protein stability index (san1∆): 2.65 ± 0.084
protein stability index (ubr1∆): 2.48 ± 0.18

QSLELMIYDDAHEISQG [BRR2]
protein stability index (doa10∆): 2.73 ± 0.04
protein stability index (pdr5∆): 2.92 ± 0.037
protein stability index (san1∆): 2.86 ± 0.037
protein stability index (ubr1∆): 3.02 ± 0.035

GWLGALTMANLPSWSLG [ARP7]
protein stability index (doa10∆): 3.07 ± 0.078
protein stability index (pdr5∆): 3.08 ± 0.062
protein stability index (san1∆): 2.68 ± 0.083
protein stability index (ubr1∆): 2.92 ± 0.057

SEEERKSSPISNEAAKP [YOR098C/NUP1]
protein stability index (doa10∆): 2.94 ± 0.099
protein stability index (pdr5∆): 2.97 ± 0.099
protein stability index (san1∆): 3.07 ± 0.069
protein stability index (ubr1∆): 3.21 ± 0.071

IFSLLTGYPDEPPAGVA [CYT1]
protein stability index (doa10∆): 2.87 ± 0.18
protein stability index (pdr5∆): 2.52 ± 0.14
protein stability index (san1∆): 2.4 ± 0.13
protein stability index (ubr1∆): 2.54 ± 0.09

AELELVDSLDPFSEGVT [SMC4]
protein stability index (doa10∆): 2.84 ± 0.072
protein stability index (pdr5∆): 2.64 ± 0.061
protein stability index (san1∆): 2.75 ± 0.12
protein stability index (ubr1∆): 3.11 ± 0.054

ENIIIVGGTTSISGFKE [ARP9]
protein stability index (doa10∆): 2.13 ± 0.092
protein stability index (pdr5∆): 2.2 ± 0.06
protein stability index (san1∆): 2.64 ± 0.07
protein stability index (ubr1∆): 2.88 ± 0.054

KRTICKKCHRLLWTPKK [RPR2]
protein stability index (doa10∆): 2.42 ± 0.051
protein stability index (pdr5∆): 2.45 ± 0.05
protein stability index (san1∆): 2.81 ± 0.048
protein stability index (ubr1∆): 2.26 ± 0.037

ADLDSLIIRNDSLSGAV [RPT3]
protein stability index (doa10∆): 3.12 ± 0.077
protein stability index (pdr5∆): 3.06 ± 0.058
protein stability index (san1∆): 2.82 ± 0.049
protein stability index (ubr1∆): 3 ± 0.049

PAALDGLMKSYKIPKVM [ESC2]
protein stability index (doa10∆): 2.76 ± 0.068
protein stability index (pdr5∆): 2.94 ± 0.12
protein stability index (san1∆): 2.85 ± 0.061
protein stability index (ubr1∆): 3.45 ± 0.088

QNSDASTLEPTLRKELE [YIL149C/MLP2]
protein stability index (doa10∆): 2.59 ± 0.09
protein stability index (pdr5∆): 1.68 ± 0.091
protein stability index (san1∆): 2.55 ± 0.069
protein stability index (ubr1∆): 3.12 ± 0.077

ACEPTAEKFVPIDIFQI [SIR3]
protein stability index (doa10∆): 2.72 ± 0.092
protein stability index (pdr5∆): 2.71 ± 0.059
protein stability index (san1∆): 2.66 ± 0.07
protein stability index (ubr1∆): 2.98 ± 0.048

VSSPESEKNKRQSKSSG [ITC1]
protein stability index (doa10∆): 3.03 ± 0.059
protein stability index (pdr5∆): 3.17 ± 0.052
protein stability index (san1∆): 2.98 ± 0.045
protein stability index (ubr1∆): 3.14 ± 0.038

YFQQTTIDWVEAGLQLC [PRP8]
protein stability index (doa10∆): 3.53 ± 0.11
protein stability index (pdr5∆): 3.19 ± 0.099
protein stability index (san1∆): 3.2 ± 0.064
protein stability index (ubr1∆): 3.04 ± 0.1

DLQKLLKGIQEFGADWY [SWI3]
protein stability index (doa10∆): 3.1 ± 0.062
protein stability index (pdr5∆): 3.07 ± 0.056
protein stability index (san1∆): 3.09 ± 0.043
protein stability index (ubr1∆): 3.22 ± 0.053

SIKSQKEEISDQKPIEH [SWI3]
protein stability index (doa10∆): 2.88 ± 0.059
protein stability index (pdr5∆): 2.98 ± 0.055
protein stability index (san1∆): 2.84 ± 0.048
protein stability index (ubr1∆): 2.96 ± 0.045

YKNEDVTALLEQGFKVV [YCS4]
protein stability index (doa10∆): 2.8 ± 0.1
protein stability index (pdr5∆): 3.08 ± 0.1
protein stability index (san1∆): 2.93 ± 0.097
protein stability index (ubr1∆): 2.74 ± 0.091

EIPSEDQNEFLLERTRE [FAS2]
protein stability index (doa10∆): 3.33 ± 0.094
protein stability index (pdr5∆): 3.3 ± 0.12
protein stability index (san1∆): 3.35 ± 0.081
protein stability index (ubr1∆): 3.22 ± 0.079

LRLTRINSGTFVKVTKA [RPL7A]
protein stability index (doa10∆): 1.89 ± 0.1
protein stability index (san1∆): 1.43 ± 0.28

GWPKLQLGPQTPAFNTA [ECM29]
protein stability index (doa10∆): 1.43 ± 0.21
protein stability index (pdr5∆): 1.48 ± 0.16
protein stability index (san1∆): 1.42 ± 0.17
protein stability index (ubr1∆): 1.68 ± 0.2

IADLASLEQLLGMMYEQ [YCS4]
protein stability index (doa10∆): 3.18 ± 0.1
protein stability index (pdr5∆): 2.6 ± 0.067
protein stability index (san1∆): 2.6 ± 0.074
protein stability index (ubr1∆): 2.65 ± 0.031

TNNTIRYNAKRRNWRRT [RPL39]
protein stability index (pdr5∆): 3.02 ± 0.22
protein stability index (ubr1∆): 3.58 ± 0.14

GELEQAQAWINLGEYYA [RPN7]
protein stability index (doa10∆): 3.58 ± 0.28
protein stability index (pdr5∆): 3.03 ± 0.098
protein stability index (san1∆): 3.33 ± 0.1
protein stability index (ubr1∆): 3.26 ± 0.057

NGIVDQVLVTTNQDGLK [RPB2]
protein stability index (doa10∆): 2.55 ± 0.092
protein stability index (pdr5∆): 2.18 ± 0.1
protein stability index (san1∆): 2.61 ± 0.088
protein stability index (ubr1∆): 1.81 ± 0.055

KLWRKIARLYSCISISD [RRI2]
protein stability index (doa10∆): 2.87 ± 0.11
protein stability index (pdr5∆): 2.1 ± 0.075
protein stability index (san1∆): 2.69 ± 0.064
protein stability index (ubr1∆): 1.61 ± 0.038

TAGVGSTPNFGGNSNKS [SIN4]
protein stability index (doa10∆): 3.73 ± 0.2
protein stability index (pdr5∆): 3.31 ± 0.21
protein stability index (san1∆): 3.39 ± 0.078
protein stability index (ubr1∆): 3.36 ± 0.061
